# T1: human CD20 on the cell surface (human, UniProt P11836 1-297)
# T1 sequence (looked up): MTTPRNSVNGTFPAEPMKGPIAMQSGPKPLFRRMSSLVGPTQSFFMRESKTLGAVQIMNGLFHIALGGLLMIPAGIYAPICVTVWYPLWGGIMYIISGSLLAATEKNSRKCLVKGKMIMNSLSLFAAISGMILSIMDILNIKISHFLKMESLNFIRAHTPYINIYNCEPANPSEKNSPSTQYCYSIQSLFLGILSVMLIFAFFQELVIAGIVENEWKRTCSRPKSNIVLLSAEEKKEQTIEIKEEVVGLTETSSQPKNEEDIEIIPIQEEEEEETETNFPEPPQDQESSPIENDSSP
# T2: human CD79b and CD20 co-expressed on the surface of B-lymphoma cell lines or primary B cells (human, UniProt P11836 1-297)
# T2 sequence 1: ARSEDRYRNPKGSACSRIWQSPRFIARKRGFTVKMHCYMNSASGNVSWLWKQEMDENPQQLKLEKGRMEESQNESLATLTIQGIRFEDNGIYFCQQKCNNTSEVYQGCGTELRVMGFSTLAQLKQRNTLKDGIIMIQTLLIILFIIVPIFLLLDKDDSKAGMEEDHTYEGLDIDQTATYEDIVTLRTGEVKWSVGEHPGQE
# T2 sequence 2: T1 sequence (looked up)
# B1: mosunetuzumab (bispecific antibody)
# chain 1: not shown
# chain 2: DIQMTQSPSSLSASVGDRVTITCRASSSVSYMHWYQQKPGKAPKPLIYAPSNLASGVPSRFSGSGSGTDFTLTISSLQPEDFATYYCQQWSFNPPTFGQGTKVEIKRTVAAPSVFIFPPSDEQLKSGTASVVCLLNNFYPREAKVQWKVDNALQSGNSQESVTEQDSKDSTYSLSSTLTLSKADYEKHKVYACEVTHQGLSSPVTKSFNRGEC
# chain 3: EVQLVQSGAEVKKPGASVKVSCKASGYTFTNYYIHWVRQAPGQGLEWIGWIYPGDGNTKYNEKFKGRATLTADTSTSTAYLELSSLRSEDTAVYYCARDSYSNYYFDYWGQGTLVTVSSASTKGPSVFPLAPSSKSTSGGTAALGCLVKDYFPEPVTVSWNSGALTSGVHTFPAVLQSSGLYSLSSVVTVPSSSLGTQTYICNVNHKPSNTKVDKKVEPKSCDKTHTCPPCPAPELLGGPSVFLFPPKPKDTLMISRTPEVTCVVVDVSHEDPEVKFNWYVDGVEVHNAKTKPREEQYGSTYRVVSVLTVLHQDWLNGKEYKCKVSNKALPAPIEKTISKAKGQPREPQVYTLPPSREEMTKNQVSLSCAVKGFYPSDIAVEWESNGQPENNYKTTPPVLDSDGSFFLVSKLTVDKSRWQQGNVFSCSVMHEALHNHYTQKSLSLSPGK
# chain 4: not shown
# B2: C923B36 CD79bxCD20xCD3 trispecific antibody (other)
# heavy: QVQLQESGPGLVKPSETLSLTCSVSGASISSFYWSWIRQPADEGLEWIGRISPSGKTNYIPSLKSRIIMSLDASKNQFSLRLNSVTAADTAMYYCARGEYSGTYSYSFDVWGQGTMVTVSSASTKGPSVFPLAPSSKSTSGGTAALGCLVKDYFPEPVTVSWNSGALTSGVHTFPAVLQSSGLYSLSSVVTVPSSSLGTQTYICNVNHKPSNTKVDKKVEPKSCDKTHTCPPCPAPEAAGGPSVFLFPPKPKDTLMISRTPEVTCVVVSVSHEDPEVKFNWYVDGVEVHNAKTKPREEQYNSTYRVVSVLTVLHQDWLNGKEYKCKVSNKALPAPIEKTISKAKGQPREPQVYTLPPSREEMTKNQVSLSCAVKGFYPSDIAVEWESNGQPENNYKTTPPVLDSDGSFFLVSKLTVDKSRWQQGNVFSCSVMHEALHNRFTQKSLSLSPGK
# light: DIVMTQSPLSLSVTPGEPASISCRSSESLLDSEDGNTYLDWFLQKPGQSPQLLIYTLSYRASGVPDRFSGSGSDTDFTLHISSLEAEDVGLYYCMQRMEFPLTFGQGTKVEIKRTVAAPSVFIFPPSDEQLKSGTASVVCLLNNFYPREAKVQWKVDNALQSGNSQESVTEQDSKDSTYSLSSTLTLSKADYEKHKVYACEVTHQGLSSPVTKSFNRGEC
# chain: EIVLTQSPATLSASPGERVTLSCSASSSVSYMNWYQQKPGQAPRRWIYDSSKLASGVPARFSGSGSGRDYTLTISSLEPEDFAVYYCQQWSRNPPTFGGGTKVEIKGGSEGKSSGSGSESKSTGGSQVQLVQSGAEVKKPGSSVKVSCKASGYTFTRSTMHWVRQAPGQGLEWMGYINPSSAYTNYAQKFQGRVTLTADKSTSTAYMELSSLRSEDTAVYYCASPQVHYDYGGFPYWGQGTLVTVSSEPKSSDKTHTCPPCPAPEAAGGPSVFLFPPKPKDTLMISRTPEVTCVVVSVSHEDPEVKFNWYVDGVEVHNAKTKPREEQYNSTYRVVSVLTVLHQDWLNGKEYKCKVSNKALPAPIEKTISKAKGQPREPQVYTLPPSREEMTKNQVSLWCLVKGFYPSDIAVEWESNGQPENNYKTTPPVLDSDGSFFLYSKLTVDKSRWQQGNVFSCSVMHEALHNHYTQKSLSLSPGKGGSEGKSSGSGSESKSTGGSAIQLTQSPSSLSASVGDRVTITCRASSSVSYIHWFQQKPGKAPKPLIYATSNLASGVPSRFSGSGSGTDFTLTISSLQPEDFATYYCQQWTSNPPTFGQGTKLEIKGGSEGKSSGSGSESKSTGGSQVQLVQSGAEVKKPGSSVKVSCKASGYTFTSYNMHWVRQAPGQGLEWMGAIYPGNGDTSYAQKFQGRVTITADKSTSTAYMELSSLRSEDTAVYYCARSTYYGGDWYFNVWGQGTLVTVSS
# B3: 79C3B601 CD79bxCD3 bispecific antibody (bispecific antibody, human IgG1, kappa, L234A L235A)
# heavy: B2 heavy
# light: B2 light
# chain: EIVLTQSPATLSASPGERVTLSCSASSSVSYMNWYQQKPGQAPRRWIYDSSKLASGVPARFSGSGSGRDYTLTISSLEPEDFAVYYCQQWSRNPPTFGGGTKVEIKGGSEGKSSGSGSESKSTGGSQVQLVQSGAEVKKPGSSVKVSCKASGYTFTRSTMHWVKQAPGQGLEWIGYINPSSAYTNYNQKFQGRVTLTADKSTSTAYMELSSLRSEDTAVYYCASPQVHYDYAGFPYWGQGTLVTVSSEPKSSDKTHTCPPCPAPEAAGGPSVFLFPPKPKDTLMISRTPEVTCVVVSVSHEDPEVKFNWYVDGVEVHNAKTKPREEQYNSTYRVVSVLTVLHQDWLNGKEYKCKVSNKALPAPIEKTISKAKGQPREPQVYTLPPSREEMTKNQVSLWCLVKGFYPSDIAVEWESNGQPENNYKTTPPVLDSDGSFFLYSKLTVDKSRWQQGNVFSCSVMHEALHNHYTQKSLSLSPGK
# notes: IgG1, knobs-in-holes, Fc-gamma-receptor-silencing mutations; HC1/LC = CD79b Fab arm, third chain = CD3 scFv-Fc arm; also called 79C3B601 bsAb; CD9B374 x CD3B2030-N106A
# Tests used:
# [1] = target: T1, human CD20 on the cell surface; experiment: cell-based or functional assay
# [2] = target: human CD3 on primary T cells (human, UniProt P07766 23-207); experiment: cell-based or functional assay
# [3] = target: T2, human CD79b and CD20 co-expressed on …; experiment: cell-based or functional assay
# [4] = target: T2, human CD79b and CD20 co-expressed on …; experiment: cell-based or functional assay; remark: listed apart in the source
# [5] = target: T3, cynomolgus monkey CD79b antigen (cynomolgus monkey); experiment: SPR Biacore 8k, cyno CD79b injected up to 3000 nM
# T3 construct: also called cyno CD79b; CD9W1.001
# Description: General Protocol for SPR Affinity Assessment: Affinity assessment of the bispecific trispecific constructs against human CD79b were measure using recombinantly expressed extracellular domain of CD79b short and long isoforms (CD9W7.001 and CD9W8.001, respectively) by Surface Plasmon Resonance (SPR) using a Biacore 8k SPR system (Biacore) at 25° C. in HBSP+ buffer. Cross-reactivity of the same antibody panel was also assessed against cyno and mouse antigens (CD9W1.001 and CD9W105.001, respectively). Briefly, a C1 sensor chip was immobilized with anti-human Fc (target immobilization levels of >400 RU) using vendor recommended amino coupling protocol. […] The association and dissociation phases were measured for 2 or 3 minutes and 30 minutes, respectively.
# The raw binding sensorgrams were processed using Biacore Insight software (Biacore) by double-referencing and the processed sensorgrams were analyzed for cross-reactivity and fitted to a 1:1 Langmuir model to obtain on-rates, off-rates and affinities.
# human CD3 on primary T cells, sequence (P07766 23-207): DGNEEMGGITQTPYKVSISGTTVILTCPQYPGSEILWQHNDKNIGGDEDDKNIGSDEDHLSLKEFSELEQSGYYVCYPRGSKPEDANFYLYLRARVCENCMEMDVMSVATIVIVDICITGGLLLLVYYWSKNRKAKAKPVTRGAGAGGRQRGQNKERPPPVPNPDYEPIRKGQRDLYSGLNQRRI
binder,measurement,setting,value
B1,"EC50, autologous B-cell depletion, donor D198013",[1],0.2 nM
same,"EC50, autologous B-cell depletion, donor D221837",[1],0.5 nM
same,"EC50, autologous B-cell depletion, donor D329465",[1],0.2 nM
same,"EC50 of CD8 T-cell activation, CARNAVAL, E:T 1:1, 48 hours",[2],0.053 nM
same,"EC50 of CD8 T-cell activation, CARNAVAL, E:T 1:1, 72 hours",[2],0.013 nM
same,"EC50 of CD8 T-cell activation, CARNAVAL, E:T 5:1, 48 hours",[2],0.038 nM
same,"EC50 of CD8 T-cell activation, CARNAVAL, E:T 5:1, 72 hours",[2],0.021 nM
same,"EC50 of CD8 T-cell activation, HT, E:T 5:1, 48 hours",[2],0.148 nM
same,"EC50 of CD8 T-cell activation, HT, E:T 5:1, 72 hours",[2],0.078 nM
same,"EC50 of CD8 T-cell activation, JEKO-1, E:T 1:1, 48 hours",[2],0.022 nM
same,"EC50 of CD8 T-cell activation, JEKO-1, E:T 1:1, 72 hours",[2],0.021 nM
same,"EC50 of CD8 T-cell activation, JEKO-1, E:T 5:1, 48 hours",[2],0.043 nM
same,"EC50 of CD8 T-cell activation, JEKO-1, E:T 5:1, 72 hours",[2],0.019 nM
same,"EC50 of CD8 T-cell activation, OCI-Ly10, E:T 1:1, 48 hours",[2],0.045 nM
same,"EC50 of CD8 T-cell activation, OCI-Ly10, E:T 1:1, 72 hours",[2],0.035 nM
same,"EC50 of CD8 T-cell activation, OCI-Ly10, E:T 5:1, 48 hours",[2],0.256 nM
same,"EC50 of CD8 T-cell activation, OCI-Ly10, E:T 5:1, 72 hours",[2],0.12 nM
same,"EC50 of CD8 T-cell activation, WILL-2, E:T 5:1, 48 hours",[2],1.24 nM
same,"EC50 of CD8 T-cell activation, WILL-2, E:T 5:1, 72 hours",[2],1.27 nM
B2,"IC50, T-cell killing of HBL-1 (Incucyte)",[3],31 nM
same,"IC50, T-cell killing of OCI-Ly10 (Incucyte)",[4],42 nM
B3,Kd,[5],> 3000 nM
